Test results reported in article PMC3896488, “Complex Regulation of PKCβ2 and PDK-1/AKT by ROCK2 in Diabetic Heart” (PLoS ONE, 2014).

Molecular target: Protein kinase C β2 (rat (endogenous in Wistar rat heart), UniProt P68403-2 1-673)
Experiment: cell-based or functional assay

Protein kinase C β2, sequence (P68403 other isoform, or with tags, fused parts or gaps): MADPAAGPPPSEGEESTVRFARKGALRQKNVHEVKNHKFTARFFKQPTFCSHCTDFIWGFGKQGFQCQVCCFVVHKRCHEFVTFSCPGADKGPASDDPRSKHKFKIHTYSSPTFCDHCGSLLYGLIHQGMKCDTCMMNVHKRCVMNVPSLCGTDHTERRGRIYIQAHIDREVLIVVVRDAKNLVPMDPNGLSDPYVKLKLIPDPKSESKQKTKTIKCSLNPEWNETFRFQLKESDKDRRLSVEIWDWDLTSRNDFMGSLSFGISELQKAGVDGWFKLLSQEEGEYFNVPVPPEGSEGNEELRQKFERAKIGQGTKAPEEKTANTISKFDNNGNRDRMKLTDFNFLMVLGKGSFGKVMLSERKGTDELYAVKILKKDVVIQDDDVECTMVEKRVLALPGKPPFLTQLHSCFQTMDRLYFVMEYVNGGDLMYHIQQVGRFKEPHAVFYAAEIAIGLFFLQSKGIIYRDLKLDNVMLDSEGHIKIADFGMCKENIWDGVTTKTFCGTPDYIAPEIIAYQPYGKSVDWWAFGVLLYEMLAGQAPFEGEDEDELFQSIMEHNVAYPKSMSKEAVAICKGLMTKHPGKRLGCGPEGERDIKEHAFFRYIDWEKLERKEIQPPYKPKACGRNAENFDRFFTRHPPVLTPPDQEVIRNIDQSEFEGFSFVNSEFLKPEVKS

B1: ROCK2 (enzyme, rat (endogenous in Wistar rat heart), UniProt Q62868 1-1388, looked up)
chain: MSRPPPTGKMPGAPEAAAGDGAGAGRQRKLEALIRDPRSPINVESLLDGLNSLVLDLDFPALRKNKNIDNFLNRYEKIVKKIRGLQMKAEDYDVVKVIGRGAFGEVQLVRHKASQKVYAMKLLSKFEMIKRSDSAFFWEERDIMAFANSPWVVQLFCAFQDDRYLYMVMEYMPGGDLVNLMSNYDVPEKWAKFYTAEVVLALDAIHSMGLIHRDVKPDNMLLDKHGHLKLADFGTCMKMDETGMVHCDTAVGTPDYISPEVLKSQGGDGYYGRECDWWSVGVFLFEMLVGDTPFYADSLVGTYSKIMDHKNSLCFPEDTEISKHAKNLICAFLTDREVRLGRNGVEEIKSASFFKNDQWNWDNIRETAAPVVPELSSDIDSSNFDDIEDDKGDVETFPIPKAFVGNQLPFIGFTYFRENLLLSDSPPCRENDAIQTRKSEESQEIQKKLYALEEHLSSEVQAKEELEQKCKSINTRLEKTAKELEEEITFRKNVESTLRQLEREKALLQHKNAEYQRKADHEADKKRNLENDVNSLKDQLEDLKKRNQSSQISTEKVNQLQKQLDEANALLRTESDTAARLRKTQAESSKQIQQLESNNRDLQDKNCLLETAKLKLEKEFINLQSALESERRDRTHGSEIINDLQGRISGLEEDLKTGKTLLAKVELEKRQLQEKLTDLEKEKSNMEIDMTYQLKVIQQSLEQEEAEHKTTKARLADKNKIYESIEEAKSEAMKEMEKKLLEERSLKQKVENLLLEAEKRCSILDCDLKQSQQKLNELLKQKDVLNEDVRNLTLKIEQETQKRCLMQNDLKMQTQQVNTLKMSEKQIKQENNHLMEMKMNLEKQNAELRKERQDADGQMKELQDQLEAEQYFSTLYKTQVRELKEENEEKTKLCKELQQKKQDLQDERDSLAAQLEITLTKADSEQLARSIAEEQYSDLEKEKIMKELEIKEMMARHKQELTEKDATIASLEETNRTLTSDVANLANEKEELNNKLKDTQEQLSKLKDEEISAAAIKAQFEKQLLTERTLKTQAVNKLAEIMNRKEPVKRGSDTDVRRKEKENRKLHMELKSEREKLTQQMIKYQKELNEMQAQIAEESQIRIELQMTLDSKDSDIEQLRSQLQALHIGMDSSSIGSGPGDAEPDDGFPESRLEGWLSLPVRNNTKKFGWVKKYVIVSSKKILFYDSEQDKEQSNPYMVLDIDKLFHVRPVTQTDVYRADAKEIPRIFQILYANEGESKKEPEFPVEPVGEKSNYICHKGHEFIPTLYHFPTNCEACMKPLWHMFKPPPALECSRCHIKCHKDHMDKKEEIIAPCKVYYDISSAKNLLLLANSTEEQQKWVSRLVKKIPKKPPAPDPFARSSPRTSMKIQQNQSIRRPSRQLAPNKPS
- in vitro phosphorylation of dephosphorylated PKCβ2 at T641 with against without active ROCK2 (molar ratio 1:30, 400 µM ATP, 37°C, 45 min), Western blot: ~2 fold
